Measurements reported in article PMC8565331, “The RNA chaperone StpA enables fast RNA refolding by destabilization of mutually exclusive base pairs within competing secondary structure elements”.

Assays:
StpA-CTD [1] = target: T1, StpA-CTD (Escherichia coli, UniProt P0ACG1 90-134); test: ITC; 25 C; n=2.33; 50 mM BisTris, 25 mM NaCl, pH 6.4; ITC at 5 and 25 C (40 uM RNA in cell, StpA-CTD 400/800/920 uM injected); NMR with 10% D2O, titration at 25 C; conditions: protein: recombinant; tags: none (His6-SUMOstar removed by SUMO protease); chain copies: 2; hairpin, locked 3'-fold
T1 chain: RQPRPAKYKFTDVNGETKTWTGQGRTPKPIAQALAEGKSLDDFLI

StpA-CTD [2] = target: T1, StpA-CTD; test: ITC; 5 C; n=2.21; 50 mM BisTris, 25 mM NaCl, pH 6.4; ITC at 5 and 25 C (40 uM RNA in cell, StpA-CTD 400/800/920 uM injected); NMR with 10% D2O, titration at 25 C; conditions: protein: recombinant; tags: none (His6-SUMOstar removed by SUMO protease); chain copies: 2; hairpin, locked 3'-fold
StpA-CTD [3] = target: T1, StpA-CTD; test: ITC; 5 C; n=1.74; 50 mM BisTris, 25 mM NaCl, pH 6.4; ITC at 5 and 25 C (40 uM RNA in cell, StpA-CTD 400/800/920 uM injected); NMR with 10% D2O, titration at 25 C; conditions: protein: recombinant; tags: none (His6-SUMOstar removed by SUMO protease); chain copies: 2; hairpin (5'-fold)
StpA-CTD [4] = target: T1, StpA-CTD; test: ITC; 25 C; n=1.69; 50 mM BisTris, 25 mM NaCl, pH 6.4; ITC at 5 and 25 C (40 uM RNA in cell, StpA-CTD 400/800/920 uM injected); NMR with 10% D2O, titration at 25 C; conditions: protein: recombinant; tags: none (His6-SUMOstar removed by SUMO protease); chain copies: 2; hairpin (5'-fold)
StpA-CTD [5] = target: T1, StpA-CTD; test: ITC; 25 C; n=1.80; 50 mM BisTris, 25 mM NaCl, pH 6.4; ITC at 5 and 25 C (40 uM RNA in cell, StpA-CTD 400/800/920 uM injected); NMR with 10% D2O, titration at 25 C; conditions: protein: recombinant; tags: none (His6-SUMOstar removed by SUMO protease); chain copies: 2; hairpin, locked 5'-fold
StpA-CTD [6] = target: T1, StpA-CTD; test: ITC; 5 C; n=1.93; 50 mM BisTris, 25 mM NaCl, pH 6.4; ITC at 5 and 25 C (40 uM RNA in cell, StpA-CTD 400/800/920 uM injected); NMR with 10% D2O, titration at 25 C; conditions: protein: recombinant; tags: none (His6-SUMOstar removed by SUMO protease); chain copies: 2; hairpin, locked 5'-fold
StpA-CTD [7] = target: T1, StpA-CTD; test: ITC; 5 C; n=1.84; 50 mM BisTris, 25 mM NaCl, pH 6.4; ITC at 5 and 25 C (40 uM RNA in cell, StpA-CTD 400/800/920 uM injected); NMR with 10% D2O, titration at 25 C; conditions: protein: recombinant; tags: none (His6-SUMOstar removed by SUMO protease); chain copies: 2
StpA-CTD [8] = target: T1, StpA-CTD; test: ITC; 25 C; n=1.93; 50 mM BisTris, 25 mM NaCl, pH 6.4; ITC at 5 and 25 C (40 uM RNA in cell, StpA-CTD 400/800/920 uM injected); NMR with 10% D2O, titration at 25 C; conditions: protein: recombinant; tags: none (His6-SUMOstar removed by SUMO protease); chain copies: 2
StpA-CTD [9] = target: T1, StpA-CTD; test: ITC; 25 C; n=1.74; 50 mM BisTris, 25 mM NaCl, pH 6.4; ITC at 5 and 25 C (40 uM RNA in cell, StpA-CTD 400/800/920 uM injected); NMR with 10% D2O, titration at 25 C; conditions: protein: recombinant; tags: none (His6-SUMOstar removed by SUMO protease); chain copies: 2; hairpin (3'-fold), 1 nt 5' overhang
StpA-CTD [10] = target: T1, StpA-CTD; test: ITC; 5 C; n=1.78; 50 mM BisTris, 25 mM NaCl, pH 6.4; ITC at 5 and 25 C (40 uM RNA in cell, StpA-CTD 400/800/920 uM injected); NMR with 10% D2O, titration at 25 C; conditions: protein: recombinant; tags: none (His6-SUMOstar removed by SUMO protease); chain copies: 2; hairpin (3'-fold), 1 nt 5' overhang

GACCGGAAGGUCCGCCUUCC (structured_RNA, N6-dimethyladenosine at A2) [A2-DMA]
Kd (StpA-CTD [1]): 13.6 ± 1.6 µM | Kd (StpA-CTD [2]): 8.31 ± 0.8 µM

GACCGGAAGGUCC (structured_RNA) [5'-HP]
Kd (StpA-CTD [3]): 13.3 ± 3.7 µM | Kd (StpA-CTD [4]): 24.7 ± 0.6 µM

GACCGGAAGGUCCGCCUUCC (structured_RNA, N1-methylguanosine at G6) [G6-m1G]
Kd (StpA-CTD [5]): 17.5 ± 1.3 µM | Kd (StpA-CTD [6]): 16.3 ± 0.7 µM

GACCGGAAGGUCCGCCUUCC (structured_RNA) [bistable 20mer RNA]
Kd (StpA-CTD [7]): 9.4 ± 1.3 µM | Kd (StpA-CTD [8]): 12.3 ± 1.7 µM

CGGAAGGUCCGCCUUCC (structured_RNA) [3'-HP]
Kd (StpA-CTD [9]): 16.1 ± 2.6 µM | Kd (StpA-CTD [10]): 11.3 ± 1.4 µM
